Data as given in patent publication US20230287082A1 (published 2023).

Target: T1, yeast surface displayed ΔB7-H6 (wild-type) (human, UniProt Q68D85 25-145)
T1 construct: also called wild-type ΔB7-H6 on yeast; not shown: Aga2p fusion partner of the pYD-derived vector
T1 sequence: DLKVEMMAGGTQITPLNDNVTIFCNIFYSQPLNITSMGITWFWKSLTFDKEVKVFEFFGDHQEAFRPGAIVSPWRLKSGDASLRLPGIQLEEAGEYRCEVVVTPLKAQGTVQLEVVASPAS
Test: yeast surface display, flow cytometry

- binding result: binds
B1: human NKp30 (receptor, UniProt O14931 19-135, looked up)
chain: LWVSQPPEIRTLEGSSAFLPCSFNASQGRLAIGSVTWFRDEVVPGKEVRNGTPEFRGRLAPLASSRFLHDHQAELHIRDVRGHDASIYVCRVEVLGLGVGTGNGTRLVVEKEHPQLG
notes: Soluble analyte in BLI; also called recombinant NKp30; his-tagged NKp30 (Abcam)
